We go through 30 substances from patent US20220289816A1, “IMMUNOTHERAPY WITH B*07 RESTRICTED PEPTIDES AND COMBINATION OF PEPTIDES AGAINST CANCERS AND RELATED METHODS” (Immatics Biotechnologies GmbH, priority 2018, published 2022).

The target in the experiment is HLA-B*07 (Homo sapiens, UniProt P01889). As to the kind of experiment: MHC binding assay (UV-ligand exchange, ELISA of stabilized MHC complexes). As to conditions: peptide exchange yield on HLA-B*07, UV-ligand exchange. An excerpt: Candidate peptides for T cell based therapies according to the present invention were further tested for their MHC binding capacity (affinity). The individual peptide-MHC complexes were produced by UV-ligand exchange, where a UV-sensitive peptide is cleaved upon UV-irradiation and exchanged with the peptide of interest as analyzed. Only peptide candidates that can effectively bind and stabilize the peptide-receptive MHC molecules prevent dissociation of the MHC complexes. To determine the yield of the exchange reaction, an ELISA was performed based on the detection of the light chain (β2m) of stabilized MHC complexes. The assay was performed as generally described in Rodenko et al. (Rodenko et al., 2006)
96 well MAXISorp plates (NUNC) were coated over night with 2 ug/ml streptavidin in PBS at room temperature, washed 4× and blocked for 1 h at 37° C. in 2% BSA containing blocking buffer. […] Peptide-MHC monomers of the UV-exchange reaction were diluted 100-fold in blocking buffer. Samples were incubated for 1 h at 37° C., washed four times, incubated with 2 ug/ml HRP conjugated anti-[…] for 1 h at 37° C., washed again and detected with TMB solution that is stopped with […]. Absorption was measured at 450 nm. Candidate peptides that show a high exchange yield (preferably higher than 50%, most preferred higher than 75%) are generally preferred for a generation and production of antibodies or fragments thereof, and/or T cell receptors or fragments thereof, as they show sufficient avidity to the MHC molecules and prevent dissociation of the MHC complexes.
For orientation: ELISA stands for enzyme-linked immunosorbent assay.
Consider “333 (SVLPRALSL; listed as Homo sapiens) [compound 333]”, for which the Peptide exchange entry is “+++ (>50 = +++)”. The same measure for “215 (IPVAIKEL; listed as Homo sapiens) [compound 215]”: “++ (>20% = ++)”; for “240 (RVMLPKAAL; listed as Homo sapiens) [compound 240]”: “+++ (>50 = +++)”; for “149 (SPSSVFTSK; listed as Homo sapiens) [compound 149]”: “+++ (>50 = +++)”.

As for “65 (FPNVYSTLVL; listed as Homo sapiens) [compound 65]”, the Peptide exchange result is recorded as “++++ (>75% = ++++)”. Regarding “313 (VPLSSYVSI; listed as Homo sapiens) [compound 313]”, the Peptide exchange entry is listed as “++++ (>75% = ++++)”. As for “19 (WPRLPGAGL; listed as Homo sapiens) [compound 19]”, the entry is “+++ (>50 = +++)”. The same measure for “461 (MPHLGPGILL; listed as Homo sapiens) [compound 461]”: “++++ (>75% = ++++)”; for “103 (REPIMKADML; listed as Homo sapiens) [compound 103]”: “++ (>20% = ++)”; for “108 (APRGSPPI; listed as Homo sapiens) [compound 108]”: “+++ (>50 = +++)”.

In the case of “106 (APFHIDRLF; listed as Homo sapiens) [compound 106]”, the Peptide exchange entry is reported as “+++ (>50 = +++)”. “277 (MPPLLIVAF; listed as Homo sapiens) [compound 277]”: the Peptide exchange entry is on record as “++ (>20% = ++)”.

As to “77 (QPRLVPGETL; listed as Homo sapiens) [compound 77]”, the Peptide exchange entry is recorded as “++++ (>75% = ++++)”. As for “492 (IPFSVDEI; listed as Homo sapiens) [compound 492]”, the entry is “+ (>10% = +)”; as for “14 (AVHEIGHSL; listed as Homo sapiens) [compound 14]”, “+++ (>50 = +++)”.

“458 (VPIPTHYFVVL; listed as Homo sapiens) [compound 458]”: the Peptide exchange entry is recorded as “++++ (>75% = ++++)”. The same measure for “145 (VPAQRLGLLL; listed as Homo sapiens) [compound 145]”: “+++ (>50 = +++)”; for “285 (RITWKGLLL; listed as Homo sapiens) [compound 285]”: “+++ (>50 = +++)”.

For the substance “347 (SPLEKINSF; listed as Homo sapiens) [compound 347]”, the Peptide exchange result was “++++ (>75% = ++++)”.

Take “281 (NPRSPPATM; listed as Homo sapiens) [compound 281]”: the Peptide exchange result is given as “++++ (>75% = ++++)”. As for “180 (RLRDYISSL; listed as Homo sapiens) [compound 180]”, the entry is “++++ (>75% = ++++)”; as for “275 (IPAPQGAVL; listed as Homo sapiens) [compound 275]”, “+++ (>50 = +++)”; as for “93 (SVAIAHGVF; listed as Homo sapiens) [compound 93]”, “++++ (>75% = ++++)”. As for “224 (SPIIHSILL; listed as Homo sapiens) [compound 224]”, the entry is “++++ (>75% = ++++)”; as for “296 (SPLLMQRTL; listed as Homo sapiens) [compound 296]”, “++++ (>75% = ++++)”; as for “381 (APRPRLLLL; listed as Homo sapiens) [compound 381]”, “+++ (>50 = +++)”. As for “282 (AVRLPTPNL; listed as Homo sapiens) [compound 282]”, the entry is “++++ (>75% = ++++)”. In the case of “295 (HPRWIEPTVM; listed as Homo sapiens) [compound 295]”, the Peptide exchange entry is recorded as “++++ (>75% = ++++)”.

With “272 (SSPRGTTSTL; listed as Homo sapiens) [compound 272]”, the Peptide exchange entry was “+++ (>50 = +++)”.

As to “188 (HAAASFETL; listed as Homo sapiens) [compound 188]”, the Peptide exchange result is listed as “++ (>20% = ++)”.
